Test results published in article PMC10671326, “In Vivo and In Vitro Characterization of the RNA Binding Capacity of SETD1A (KMT2F)”.
Values joined by “and” are separate entries in the source; they are usually repeats but may differ in a detail not shown here. Equal values may be shown once.

What was measured:
SETD1A RRM domain [1] = molecular target: T1, SETD1A RRM domain (human, UniProt O15047 89-197); assay: MST; conditions: EMSA: 2 nM biotinylated RNA, LightShift RNA EMSA kit protocol, 30 min room temperature, 6% native PAGE in 0.5x TBE; MST: 40% MST power, LED 20-40%, buffer and …
T1 sequence (O15047 89-197): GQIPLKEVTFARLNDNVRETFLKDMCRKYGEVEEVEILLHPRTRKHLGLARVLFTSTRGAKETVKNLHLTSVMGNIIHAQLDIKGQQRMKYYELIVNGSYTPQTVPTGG

SETD1A RRM domain [2] = molecular target: T1, SETD1A RRM domain; assay: MST; back diffusion; EMSA: 2 nM biotinylated RNA, LightShift RNA EMSA kit protocol, 30 min room temperature, 6% native PAGE in 0.5x TBE; MST: 40% MST power, LED 20-40%, buffer and temperature not in material; conditions: protein: recombinant; tags: His (pET28-MHL vector, HisTrap purified); label: uniformly labeled (MST)
SETD1A RRM domain [3] = molecular target: T1, SETD1A RRM domain; assay: MST; thermophoresis; EMSA: 2 nM biotinylated RNA, LightShift RNA EMSA kit protocol, 30 min room temperature, 6% native PAGE in 0.5x TBE; MST: 40% MST power, LED 20-40%, buffer and temperature not in material; conditions: protein: recombinant; tags: His (pET28-MHL vector, HisTrap purified); label: uniformly labeled (MST)
SETD1A RRM domain [4] = molecular target: T1, SETD1A RRM domain; assay: MST; T-jump; EMSA: 2 nM biotinylated RNA, LightShift RNA EMSA kit protocol, 30 min room temperature, 6% native PAGE in 0.5x TBE; MST: 40% MST power, LED 20-40%, buffer and temperature not in material; conditions: protein: recombinant; tags: His (pET28-MHL vector, HisTrap purified); label: uniformly labeled (MST)

Molecule	Kd (SETD1A RRM domain [1])	other results
SETD1B mRNA (RRM coding region)	0.31 µM	
SCARNA7	1.28 µM and 0.31 µM and 1.17 µM	
SETD1A mRNA (N-terminal half coding region)	0.21 µM and 0.06 µM	
TP53TG1	0.67 µM and 0.69 µM and 1.05 µM	
NEAT1_2 (12_13k segment)	1.52 µM and 1.89 µM and 1.11 µM	
SNHG8	0.87 µM and 2.19 µM and 1.19 µM	
AAGAAUGGCCUCGCGGAGGCAUGCGUCAUGCUAGCGUGCGGGGUACUCUU (ssRNA) [Random50 (R50)]		Kd (SETD1A RRM domain [2]): 11.8 µM; Kd (SETD1A RRM domain [3]): 28.1 µM; Kd (SETD1A RRM domain [4]): 15.5 µM
